{
  "source": "patent EP4692114A1",
  "about": "“CALCITONIN ANALOGUE, AND DERIVATIVE THEREOF AND USE THEREOF” (Hangzhou Sciwind Biosciences Co., Ltd., priority 2023, dated 2024)",
  "binders": {"B1": {"name": "calcitonin derivative M27 (peptide)", "peptide": "{C20 diacid-γGlu}-ISQLSTIVLGRLSQELHRLQDYPRTDVGSGSP-NH2", "SMILES": "CC[C@H](C)[C@H](NC(=O)CC[C@H](NC(=O)CCCCCCCCCCCCCCCCCCC(=O)O)C(=O)O)C(=O)N[C@@H](CO)C(=O)N[C@@H](CCC(N)=O)C(=O)N[C@@H](CC(C)C)C(=O)N[C@@H](CO)C(=O)N[C@H](C(=O)N[C@H](C(=O)N[C@H](C(=O)N[C@@H](CC(C)C)C(=O)NCC(=O)N[C@@H](CCCNC(=N)N)C(=O)N[C@@H](CC(C)C)C(=O)N[C@@H](CO)C(=O)N[C@@H](CCC(N)=O)C(=O)N[C@@H](CCC(=O)O)C(=O)N[C@@H](CC(C)C)C(=O)N[C@@H](Cc1c[nH]cn1)C(=O)N[C@@H](CCCNC(=N)N)C(=O)N[C@@H](CC(C)C)C(=O)N[C@@H](CCC(N)=O)C(=O)N[C@@H](CC(=O)O)C(=O)N[C@@H](Cc1ccc(O)cc1)C(=O)N1CCC[C@H]1C(=O)N[C@@H](CCCNC(=N)N)C(=O)N[C@H](C(=O)N[C@@H](CC(=O)O)C(=O)N[C@H](C(=O)NCC(=O)N[C@@H](CO)C(=O)NCC(=O)N[C@@H](CO)C(=O)N1CCC[C@H]1C(N)=O)C(C)C)[C@@H](C)O)C(C)C)[C@@H](C)CC)[C@@H](C)O"}, "B2": {"name": "calcitonin derivative M12 (peptide)", "peptide": "{C20 diacid-γGlu}-ASQLSTAVLGRLSTELHRLQDYPRTDVGSGSP-NH2", "SMILES": "CC(C)C[C@H](NC(=O)[C@H](CCCNC(=N)N)NC(=O)CNC(=O)[C@H](CC(C)C)NC(=O)[C@@H](NC(=O)[C@H](C)NC(=O)[C@@H](NC(=O)[C@H](CO)NC(=O)[C@H](CC(C)C)NC(=O)[C@H](CCC(N)=O)NC(=O)[C@H](CO)NC(=O)[C@H](C)NC(=O)CC[C@H](NC(=O)CCCCCCCCCCCCCCCCCCC(=O)O)C(=O)O)[C@@H](C)O)C(C)C)C(=O)N[C@@H](CO)C(=O)N[C@H](C(=O)N[C@@H](CCC(=O)O)C(=O)N[C@@H](CC(C)C)C(=O)N[C@@H](Cc1c[nH]cn1)C(=O)N[C@@H](CCCNC(=N)N)C(=O)N[C@@H](CC(C)C)C(=O)N[C@@H](CCC(N)=O)C(=O)N[C@@H](CC(=O)O)C(=O)N[C@@H](Cc1ccc(O)cc1)C(=O)N1CCC[C@H]1C(=O)N[C@@H](CCCNC(=N)N)C(=O)N[C@H](C(=O)N[C@@H](CC(=O)O)C(=O)N[C@H](C(=O)NCC(=O)N[C@@H](CO)C(=O)NCC(=O)N[C@@H](CO)C(=O)N1CCC[C@H]1C(N)=O)C(C)C)[C@@H](C)O)[C@@H](C)O"}, "B3": {"name": "calcitonin derivative M44 (peptide)", "peptide": "{C18 diacid}-DASQLSTAVLGRLSDELHRLQDYPRTDVGSGSP-NH2", "SMILES": "CC(C)C[C@H](NC(=O)[C@H](CCCNC(=N)N)NC(=O)CNC(=O)[C@H](CC(C)C)NC(=O)[C@@H](NC(=O)[C@H](C)NC(=O)[C@@H](NC(=O)[C@H](CO)NC(=O)[C@H](CC(C)C)NC(=O)[C@H](CCC(N)=O)NC(=O)[C@H](CO)NC(=O)[C@H](C)NC(=O)[C@H](CC(=O)O)NC(=O)CCCCCCCCCCCCCCCCC(=O)O)[C@@H](C)O)C(C)C)C(=O)N[C@@H](CO)C(=O)N[C@@H](CC(=O)O)C(=O)N[C@@H](CCC(=O)O)C(=O)N[C@@H](CC(C)C)C(=O)N[C@@H](Cc1c[nH]cn1)C(=O)N[C@@H](CCCNC(=N)N)C(=O)N[C@@H](CC(C)C)C(=O)N[C@@H](CCC(N)=O)C(=O)N[C@@H](CC(=O)O)C(=O)N[C@@H](Cc1ccc(O)cc1)C(=O)N1CCC[C@H]1C(=O)N[C@@H](CCCNC(=N)N)C(=O)N[C@H](C(=O)N[C@@H](CC(=O)O)C(=O)N[C@H](C(=O)NCC(=O)N[C@@H](CO)C(=O)NCC(=O)N[C@@H](CO)C(=O)N1CCC[C@H]1C(N)=O)C(C)C)[C@@H](C)O"}},
  "note": "*1 amine or outer side, *2 acyl side, *3 side chain or, on linkers, in order; H or OH if unused. Primed or numbered codes have the meaning given here. The star is where a group is joined. C20 diacid = O=C(O)CCCCCCCCCCCCCCCCCCC(=O)*; C18 diacid = O=C(O)CCCCCCCCCCCCCCCCC(=O)*; γGlu = O=C(O)[C@H](CCC(=O)[*:2])N[*:1]; Trx′ = not defined here; AEEA = NCCOCCOCC(=O)O",
  "data": [
    {"molecular_target": "T1, human amylin receptor (AMY3) on CHO-K1/Gal5/AMY3 cells (human, UniProt P30988 25-474; O60896 24-148)", "T1 sequence (looked up) 1": "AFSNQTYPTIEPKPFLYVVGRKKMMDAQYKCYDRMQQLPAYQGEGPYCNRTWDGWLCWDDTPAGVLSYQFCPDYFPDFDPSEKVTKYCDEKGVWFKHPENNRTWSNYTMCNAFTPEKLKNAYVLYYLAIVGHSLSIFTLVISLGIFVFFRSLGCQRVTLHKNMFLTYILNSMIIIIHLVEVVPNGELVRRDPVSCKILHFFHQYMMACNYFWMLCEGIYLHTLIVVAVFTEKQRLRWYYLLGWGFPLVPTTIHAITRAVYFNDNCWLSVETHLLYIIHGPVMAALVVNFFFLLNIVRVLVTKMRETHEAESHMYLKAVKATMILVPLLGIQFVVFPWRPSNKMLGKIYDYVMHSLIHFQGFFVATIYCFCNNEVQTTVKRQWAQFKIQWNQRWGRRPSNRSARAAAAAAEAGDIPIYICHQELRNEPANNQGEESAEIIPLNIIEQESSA", "T1 sequence (looked up) 2": "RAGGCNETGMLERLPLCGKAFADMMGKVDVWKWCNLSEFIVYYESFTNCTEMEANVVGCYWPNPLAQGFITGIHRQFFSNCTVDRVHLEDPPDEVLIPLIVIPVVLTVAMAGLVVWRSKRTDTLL", "assay": "cell-based or functional assay", "units": {"EC50/nM, CRE-luciferase in amylin receptor/CRE-luc CHO cells": "nM"}, "values": [
      {"binder": "B1", "EC50/nM, CRE-luciferase in amylin receptor/CRE-luc CHO cells": 0.016},
      {"binder": "B2", "EC50/nM, CRE-luciferase in amylin receptor/CRE-luc CHO cells": 0.017},
      {"binder": "{C20 diacid-Trx′-AEEA-AEEA}-ASQLSTAVLGRLSEELHRLQDYPRTDVGSGSP-NH2 (reading uncertain)", "note": "[calcitonin derivative M61]", "EC50/nM, CRE-luciferase in amylin receptor/CRE-luc CHO cells": 0.015},
      {"binder": "B3", "EC50/nM, CRE-luciferase in amylin receptor/CRE-luc CHO cells": 0.016}
    ]}
  ]
}
